These are literature values, as cited in paper PMC8620506.

The Kd is the free concentration of one partner at which half of the binding sites on the other are occupied at equilibrium, for simple one-to-one binding.

The data set concerns the target NS4B (Dengue virus) (UniProt P27909).

For NS4A (from UniProt P27909), the Kd was 50 nM.
